What follows are sequences tested on Escherichia coli TOP10 (assay: shrunken log2 fold change of peptide-encoding DNA abundance (4.5 h post-induction vs induction); higher = less antimicrobial activity (less host growth inhibition)). Conditions: time post-induction: 4.5 h; library: site-saturation at positions 5, 18, 19, 20.
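Note: peptides expressed intracellularly from a pBAD plasmid library in pooled LB shake-flask culture, induced with 0.3% L-arabinose, DNA abundance read by NGS, three biological replicates, DESeq2 with apeglm shrinkage.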

Row | Sequence | shrunken log2 fold change
1 | RRIRERPPRLPRPRPRPKWFPRP | -0.0144
2 | RRIRERPPRLPRPRPRPKWNPRP | -0.447
3 | RRIRERPPRLPRPRPRPLAEPRP | 0.17
4 | RRIRERPPRLPRPRPRPLAKPRP | 0.0848
5 | RRIRERPPRLPRPRPRPLAYPRP | -0.203
6 | RRIRERPPRLPRPRPRPLCIPRP | -0.895
7 | RRIRERPPRLPRPRPRPLCNPRP | -0.342
8 | RRIRERPPRLPRPRPRPLCYPRP | -0.824
9 | RRIRERPPRLPRPRPRPLDRPRP | 0.0551
10 | RRIRERPPRLPRPRPRPLETPRP | -0.0311
11 | RRIRERPPRLPRPRPRPLFLPRP | -0.306
12 | RRIRERPPRLPRPRPRPLHLPRP | -0.0385
13 | RRIRERPPRLPRPRPRPLIQPRP | -0.28
14 | RRIRERPPRLPRPRPRPLLVPRP | -0.441
15 | RRIRERPPRLPRPRPRPLMRPRP | 0.839
16 | RRIRERPPRLPRPRPRPLMVPRP | -0.498
17 | RRIRERPPRLPRPRPRPLMWPRP | -0.101
18 | RRIRERPPRLPRPRPRPLPEPRP | 0.0716
19 | RRIRERPPRLPRPRPRPLQGPRP | -0.179
20 | RRIRERPPRLPRPRPRPLREPRP | 0.385
21 | RRIRERPPRLPRPRPRPLVHPRP | -0.158
22 | RRIRERPPRLPRPRPRPLVPPRP | -0.182

Row | Sequence | shrunken log2 fold change
23 | RRIRERPPRLPRPRPRPLWEPRP | -0.281
24 | RRIRERPPRLPRPRPRPLWHPRP | -0.0827
25 | RRIRERPPRLPRPRPRPLWWPRP | 0.0601
26 | RRIRERPPRLPRPRPRPLWYPRP | -0.287
27 | RRIRERPPRLPRPRPRPMCNPRP | -0.0237
28 | RRIRERPPRLPRPRPRPMCPPRP | -0.0308
29 | RRIRERPPRLPRPRPRPMDTPRP | -0.501
30 | RRIRERPPRLPRPRPRPMFPPRP | -0.475
31 | RRIRERPPRLPRPRPRPMGCPRP | 0.111
32 | RRIRERPPRLPRPRPRPMHMPRP | -0.000687
33 | RRIRERPPRLPRPRPRPMHQPRP | -0.452
34 | RRIRERPPRLPRPRPRPMKCPRP | 0.00911
35 | RRIRERPPRLPRPRPRPMKWPRP | -0.0404
36 | RRIRERPPRLPRPRPRPMMEPRP | -0.0582
37 | RRIRERPPRLPRPRPRPMMKPRP | -0.282
38 | RRIRERPPRLPRPRPRPMMNPRP | -0.122
39 | RRIRERPPRLPRPRPRPMMQPRP | -0.0983
40 | RRIRERPPRLPRPRPRPMNNPRP | -0.637
41 | RRIRERPPRLPRPRPRPMPWPRP | 0.0819
42 | RRIRERPPRLPRPRPRPMQHPRP | -0.04
43 | RRIRERPPRLPRPRPRPMRDPRP | 0.365
44 | RRIRERPPRLPRPRPRPMREPRP | 0.992

Row | Sequence | shrunken log2 fold change
45 | RRIRERPPRLPRPRPRPMRQPRP | 0.575
46 | RRIRERPPRLPRPRPRPMSFPRP | -0.314
47 | RRIRERPPRLPRPRPRPMSTPRP | -0.516
48 | RRIRERPPRLPRPRPRPMSWPRP | 0.13
49 | RRIRERPPRLPRPRPRPMTCPRP | -0.00926
50 | RRIRERPPRLPRPRPRPMTPPRP | -0.0365
51 | RRIRERPPRLPRPRPRPMVYPRP | -0.119
52 | RRIRERPPRLPRPRPRPMWPPRP | 0.186
53 | RRIRERPPRLPRPRPRPMYGPRP | -0.739
54 | RRIRERPPRLPRPRPRPMYPPRP | -0.0412
55 | RRIRERPPRLPRPRPRPMYVPRP | -0.0843
56 | RRIRERPPRLPRPRPRPNAQPRP | 0.138
57 | RRIRERPPRLPRPRPRPNCDPRP | -0.261
58 | RRIRERPPRLPRPRPRPNDSPRP | -0.0224
59 | RRIRERPPRLPRPRPRPNEEPRP | 0.00699
60 | RRIRERPPRLPRPRPRPNGCPRP | 0.00429
61 | RRIRERPPRLPRPRPRPNIGPRP | -0.00187
62 | RRIRERPPRLPRPRPRPNIIPRP | -0.338
63 | RRIRERPPRLPRPRPRPNITPRP | -0.738
64 | RRIRERPPRLPRPRPRPNKYPRP | 0.202
65 | RRIRERPPRLPRPRPRPNLLPRP | 0.107
66 | RRIRERPPRLPRPRPRPNLNPRP | -0.58

Row | Sequence | shrunken log2 fold change
67 | RRIRERPPRLPRPRPRPNMCPRP | -0.369
68 | RRIRERPPRLPRPRPRPNMQPRP | -0.664
69 | RRIRERPPRLPRPRPRPNMVPRP | -0.61
70 | RRIRERPPRLPRPRPRPNNMPRP | -0.713
71 | RRIRERPPRLPRPRPRPNNSPRP | -0.693
72 | RRIRERPPRLPRPRPRPNQDPRP | 0.169
73 | RRIRERPPRLPRPRPRPNRYPRP | -0.0565
74 | RRIRERPPRLPRPRPRPNSHPRP | -0.8
75 | RRIRERPPRLPRPRPRPNSNPRP | -0.828
76 | RRIRERPPRLPRPRPRPNTLPRP | -0.556
77 | RRIRERPPRLPRPRPRPNTMPRP | -0.122
78 | RRIRERPPRLPRPRPRPNVEPRP | 0.0609
79 | RRIRERPPRLPRPRPRPNWNPRP | -0.236
80 | RRIRERPPRLPRPRPRPNYVPRP | -0.931
81 | RRIRERPPRLPRPRPRPPAAPRP | 0.252
82 | RRIRERPPRLPRPRPRPPADPRP | 0.152
83 | RRIRERPPRLPRPRPRPPAMPRP | -0.186
84 | RRIRERPPRLPRPRPRPPAQPRP | 0.0318
85 | RRIRERPPRLPRPRPRPPASPRP | 0.127
86 | RRIRERPPRLPRPRPRPPDTPRP | -0.426
87 | RRIRERPPRLPRPRPRPPELPRP | 0.102
88 | RRIRERPPRLPRPRPRPPESPRP | 0.16

Row | Sequence | shrunken log2 fold change
89 | RRIRERPPRLPRPRPRPPEWPRP | -0.0429
90 | RRIRERPPRLPRPRPRPPFGPRP | 0.577
91 | RRIRERPPRLPRPRPRPPGVPRP | 0.232
92 | RRIRERPPRLPRPRPRPPHGPRP | 0.19
93 | RRIRERPPRLPRPRPRPPIIPRP | -0.562
94 | RRIRERPPRLPRPRPRPPIPPRP | 0.281
95 | RRIRERPPRLPRPRPRPPMAPRP | 0.149
96 | RRIRERPPRLPRPRPRPPNFPRP | -0.329
97 | RRIRERPPRLPRPRPRPPQEPRP | 0.192
98 | RRIRERPPRLPRPRPRPPRTPRP | 0.316
99 | RRIRERPPRLPRPRPRPPRYPRP | -0.202
100 | RRIRERPPRLPRPRPRPPSCPRP | 0.103
101 | RRIRERPPRLPRPRPRPPSPPRP | -0.0326
102 | RRIRERPPRLPRPRPRPPSYPRP | -0.0583
103 | RRIRERPPRLPRPRPRPPTSPRP | 0.0163
104 | RRIRERPPRLPRPRPRPPTTPRP | 0.322
105 | RRIRERPPRLPRPRPRPPVDPRP | 0.125
106 | RRIRERPPRLPRPRPRPPVIPRP | -0.257
107 | RRIRERPPRLPRPRPRPPWIPRP | -0.042
108 | RRIRERPPRLPRPRPRPPYHPRP | -0.456
109 | RRIRERPPRLPRPRPRPPYSPRP | -0.102

From the supplement of paper PMC9112550, “Optimization of the antimicrobial peptide Bac7 by deep mutational scanning” (BMC Biology, 2022)
